In patent US20200199207A1 one finds EC50 data, which are given here for seven molecules.

Where a chain is given by its changes, count along the chain named.

The labels stand for the following.
B1: h7G6 (antibody, V domains shown)
VH: QVQLVESGGGVVQPGRSLRLSCAASGIAFNDYTMHWVRRSPDKGLEWVAAISYGGTNKYYADSVKGRFTISRDSSKNTLFLQMDSLRVEDTAVYYCARDSGYRSLLHWGQGTLVTVSS
VL: EIVLTQSPLSLPVTPGEPASISCRSSQSLVHRNGYNYLDWYLQKPGQSPQLLIYMASKRASGVPDRFSGSGSGTEFTLKISRVEAEDVGIYYCMQALQTWTFGQGTKVEVN
B2: h2F8 (antibody, V domains shown)
VH: EVQLVESGGGLVKPGGSLRLSCAASGFIFSDYNMNWVRQAPGKGLEWVSSITRSSRTIYYADSVKGRFTISRDNAKNSLHLQMNSLRDADTAVYYCAREDFDVSTGPYYMDVWGNGTTVIVSS
VL: EIVLTQSPGTLSLSPGERATLSCRASQSVSNMFLVWYQQKPGQAPRLLMYGASTRATDIPDRFSGSGSGTDFTLTISRLEPEDFAVYYCQQNGNSPYTFGQGTKLEIK
B3: h37D5 (antibody, V domains shown)
VH: EEQLVESGGRLLRPGESLSLSCAAVGFNFGDFGMAWVRQPPGKGLEWVAGINWSGHSTGFVDSMKGRLTISRDSAKSSLFLQMNSLRGEDTAVYYCARVGRLCSGDICDSMGAFDLWGQGTMVTVSS
VL: DIQMTQSPSTLSASIGDRVTITCRASQTIDNWLAWYQQRPGKAPKLLIYQASSLQSGVSSRFRGSGSGTEFTLTITSLQPDDFATYYCQKSNGYSRTFGQGTKVEIK
B4: hm37D5 (antibody, V domains shown)
VH: B3 VH
VL: B3 VL
B5: h12G10 (antibody, human IgG1, V domains shown)
VH: EVQLLESGGRLLRPGGSLSLSCVASGFYFGDFGMSWVRQVPGKGLEWVSGIDWSGRSTGYVDSMKGRLTISRDNDKSSLYLQMNDLRGEDTAVYYCARVGRLCSGDSCDSMGAFDLWGQGTMVTVSS
VL: B3 VL with M4L, R18S, T28N, R39K, K45R, Q50K, Q55G, R61K, S67F, E105D
B6: hm12G10 (antibody, V domains shown)
VH: B5 VH
VL: B3 VL with M4L, R18S, T28N, R39K, K45R, Q50K, Q55G, R61K, S67F, E105D
B7: h32B10 (antibody, V domains shown)
VH: QVQLVQSGAEVKKPGASVKVSCRASGYIFRNFDINWVRQATGQGLEWMGWMSPKSGDTGYAQKFQGRVTMTRDTSINTAYMELSSLTSEDSAVYYCARGVDGTNWGQGTRVTVSS
VL: DIVMTQSPDSLGVSLGERATISCKSSQSILDNSNNKNFIAWFQQKPGQPPKLLIYWASARESGVPDRFSGSGSGTEFTLTINSLQAEDVAVYYCYQYYSTPHTFGQGTKLDLR

The target of this assay is natural peanut extract. As to the kind of experiment: ELISA, antigen-coated plate. (In general: ELISA stands for enzyme-linked immunosorbent assay.)
One may read the EC50 as the concentration giving half of the maximal effect. Lower therefore signals an effect from little substance. B1: the EC50 came to 2.8 ng/mL.

With B2, the EC50 amounted to 2.8 ng/mL.

On to B3, for which the EC50 came to 6.5 ng/mL.

B4 registered an EC50 of 7.1 ng/mL.

Molecule B5 registered an EC50 of 8.1 ng/mL.

The molecule B6 yielded an EC50 of 8.5 ng/mL.

B7 gave an EC50 of 4.8 ng/mL.
